These are literature values, as cited in article PMC7221163.

pKd: −log10 of the molar value.

This data set deals with insulin receptor (HIR) (Homo sapiens) (UniProt P06213). Put plainly: radioreceptor assay.

Chain of insulin (P01308 90-110): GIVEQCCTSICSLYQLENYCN

Broadly, the pKd is the negative decadic logarithm of the Kd, by convention in mol/L. With insulin (from UniProt P01308), the pKd is 8.92.
